Experimental data from patent US20110076723A1, “ANTIBODY-PEPTIDE FUSED SYNERGIBODY” (SAMSUNG ELECTRONICS CO., LTD., priority 2008, published 2011).

tested on: HUVEC; experiment: Cell-based functional assay, endothelial cell tube formation (BD BioCoat Angiogenesis System); design: species or system human; settings: 5 μM fused protein synergibody, 18 hours; unrelated control group 12,227 ± 1,232
Experimental: Chimeric antibodies may be screened by functional assays such as cell-based assay for inhibition activity. In this example, BD BioCoat™ Angiogenesis System-Endothelial Cell Tube Formation (BD Biosciences) is used. BD Falcon 96-well Black/Clear plate coated with BD Matrigel Matrix that had been stored at −20° C. is slowly melted at 4° C. for 6 hours, and the mat cover of the plate is removed inside a sterile clean bench. Then it is left at 37° C. , 5% CO2 for 30 minutes so that the Matrigel™ Matrix would form polymers. Then it is made into a suspension by treating HUVEC, cultured on a petridish containing EGM-2 MV (Lonza) medium added with 10% fetal bovine serum to 70 to 80% confluence, with 0.5% Trypsin-EDTA (Gibco). Then it is resuspended in a culture medium containing 10% fetal bovine serum to a cell concentration of 4×10^5 cells/ml. At this time, 5 μM of each anti-Ang-2 chimeric antibodies expressed and purified in Section 5 above are also added and resuspended. Then 50 μl (about 2×10^4 cells) of each of the suspension is added to each well of the plate and incubated at 37° C. , 5% CO2 for 18 hours. Then the medium is removed and each well is washed twice with 100 μl of Hanks' balanced salt solution (HBSS, Invitrogen) ensuring that the tubes of the cells formed on BD Matrigel™ Matrix are not damaged. 50 μl of calcein AM (BD sciences) dissolved in HBSS at the concentration of 8 μg/ml is added to each well. The plate is then left to react at 37° C., 5% CO2 for 30 minutes and the calcein AM (BD sciences) solution is removed and washed twice with HBSS. Lastly, an image of the length of the entire tube of HUVEC formed on BD Matrigel™ Matrix is obtained on a fluorescent microscope and analyzed by using MetaMorph® software (Universal Imaging Corporation™, http://www.moleculardevices.com).
The peptides synthesized in Section 6A above are screened by cell-based functional assay for inhibition activity. The method described in Example 1, Section 7 is used, except that 5 μM synthesized peptides are added instead of anti-Ang-2 antibodies.
The fused protein synergibodies prepared in Section 1 above are screened using cell-based functional assay for inhibition activity. The method described in Example 1, Section 7 is used, except that, in this example, 5 μM of fused protein synergibodies are added instead of anti-Ang-2 antibodies.

| Molecule | Length of entire tube of HUVEC (2 × 10^4 cells) (pixels) |
| --- | --- |
| Syn-Ang-VEGFR-15: fused protein synergibody SAITAng-2-3 × DTN11VEGFR-2-5, peptide at C-terminal of heavy chain (protein, left off: a dimerising Fc or GST, fused protein synergibody SAITAng-2-3 × DTN11VEGFR-2-5, peptide at C-terminal of heavy chain) heavy (part 1 of 2): DVQLVESGGGLVQPGGSRKLSCAASGFTFSSFGMHWVRQAPEKGLEWVAYISSDSSTIYYADTVKGRFTISRDNPKNTLFLQMTSLRSEDTAMYYCAREGGYDDYYAMDYWGQGTSVTVSS heavy (part 2 of 2): PGSQGYCHLNMRYQWICDSE light: DIQMTQSPASQSASLGESVTITCLASQTIGTWLAWYQQKPGKSPQLLIYAATSLADGVPSRFSGSGSGTKFSFKISSLQAEDFVSYYCQQLYSIPLTFGGGTKLEIK | 4,116 ± 815 pixels |
| Syn-Ang-VEGFR-16: fused protein synergibody SAITAng-2-4 × DTN6VEGFR-2-1, peptide at C-terminal of heavy chain (protein, left off: a dimerising Fc or GST, fused protein synergibody SAITAng-2-4 × DTN6VEGFR-2-1, peptide at C-terminal of heavy chain) heavy (part 1 of 2): QVQLQQSGAELARPGASVKLSCKASGYTFTDYYINWAKQRTGQGLEWIGEIYPGSGDTYYNEKFKGKATLTADKSSSTAYMQLSSLTSEDSAVYFCARYGYKGVYFDYWGQSTTLTVSS heavy (part 2 of 2): TGSDDLCYTFPCMHY light: ENVLTQSPAIMAASLGQKVTMTCSASSSVSSSYLHWYQQKSGASPKPLIHRTSNLASGVPARFSGSGSGTSYSLTISSVEAEDDATYYCQQWSGYPFTFGAGTKLELK | 5,022 ± 809 pixels |
| Syn-Ang-VEGFR-17: fused protein synergibody SAITAng-2-4 × DTN8VEGFR-2-2, peptide at C-terminal of heavy chain (protein, left off: a dimerising Fc or GST, fused protein synergibody SAITAng-2-4 × DTN8VEGFR-2-2, peptide at C-terminal of heavy chain) heavy (part 1 of 2): QVQLQQSGAELARPGASVKLSCKASGYTFTDYYINWAKQRTGQGLEWIGEIYPGSGDTYYNEKFKGKATLTADKSSSTAYMQLSSLTSEDSAVYFCARYGYKGVYFDYWGQSTTLTVSS heavy (part 2 of 2): EAGKETCGYEWQYCPRP light: ENVLTQSPAIMAASLGQKVTMTCSASSSVSSSYLHWYQQKSGASPKPLIHRTSNLASGVPARFSGSGSGTSYSLTISSVEAEDDATYYCQQWSGYPFTFGAGTKLELK | 5,215 ± 714 pixels |
| Syn-Ang-VEGFR-19: fused protein synergibody SAITAng-2-4 × DTN10VEGFR-2-4, peptide at C-terminal of heavy chain (protein, left off: a dimerising Fc or GST, fused protein synergibody SAITAng-2-4 × DTN10VEGFR-2-4, peptide at C-terminal of heavy chain) heavy (part 1 of 2): QVQLQQSGAELARPGASVKLSCKASGYTFTDYYINWAKQRTGQGLEWIGEIYPGSGDTYYNEKFKGKATLTADKSSSTAYMQLSSLTSEDSAVYFCARYGYKGVYFDYWGQSTTLTVSS heavy (part 2 of 2): TGSGRMCDGSGPPTNCWFT light: ENVLTQSPAIMAASLGQKVTMTCSASSSVSSSYLHWYQQKSGASPKPLIHRTSNLASGVPARFSGSGSGTSYSLTISSVEAEDDATYYCQQWSGYPFTFGAGTKLELK | 5,329 ± 822 pixels |
| Syn-Ang-VEGFR-20: fused protein synergibody SAITAng-2-4 × DTN11VEGFR-2-5, peptide at C-terminal of heavy chain (protein, left off: a dimerising Fc or GST, fused protein synergibody SAITAng-2-4 × DTN11VEGFR-2-5, peptide at C-terminal of heavy chain) heavy (part 1 of 2): QVQLQQSGAELARPGASVKLSCKASGYTFTDYYINWAKQRTGQGLEWIGEIYPGSGDTYYNEKFKGKATLTADKSSSTAYMQLSSLTSEDSAVYFCARYGYKGVYFDYWGQSTTLTVSS heavy (part 2 of 2): PGSQGYCHLNMRYQWICDSE light: ENVLTQSPAIMAASLGQKVTMTCSASSSVSSSYLHWYQQKSGASPKPLIHRTSNLASGVPARFSGSGSGTSYSLTISSVEAEDDATYYCQQWSGYPFTFGAGTKLELK | 5,512 ± 699 pixels |
| Syn-Ang-VEGFR-18: fused protein synergibody SAITAng-2-4 × DTN9VEGFR-2-3, peptide at C-terminal of heavy chain (protein, left off: a dimerising Fc or GST, fused protein synergibody SAITAng-2-4 × DTN9VEGFR-2-3, peptide at C-terminal of heavy chain) heavy (part 1 of 2): QVQLQQSGAELARPGASVKLSCKASGYTFTDYYINWAKQRTGQGLEWIGEIYPGSGDTYYNEKFKGKATLTADKSSSTAYMQLSSLTSEDSAVYFCARYGYKGVYFDYWGQSTTLTVSS heavy (part 2 of 2): EAGAYWCKAWGLSPCLVT light: ENVLTQSPAIMAASLGQKVTMTCSASSSVSSSYLHWYQQKSGASPKPLIHRTSNLASGVPARFSGSGSGTSYSLTISSVEAEDDATYYCQQWSGYPFTFGAGTKLELK | 5,723 ± 736 pixels |
